The term Km denotes the concentration of substrate that gives half-maximal velocity. What is called kcat is the maximal rate divided by the concentration of active sites. In general, kcat/Km refers to the turnover number divided by the Michaelis constant.

The source of these data is publication PMC9653972, “Thermophilic Inorganic Pyrophosphatase Ton1914 from Thermococcus onnurineus NA1 Removes the Inhibitory Effect of Pyrophosphate” (International Journal of Molecular Sciences, 2022).

Substrate in the series: O=P(O)(O)OP(=O)(O)O
The series can be described thus: purified protein. In kind it is biochemical, Thermococcus onnurineus. Conditions: standard assay: 2 mM MgCl2, 50 mM Tris-HCl, 80 °C, optimum pH 9.0 (pH of the kinetic run not stated).

B1: Ton1914 (Thermococcus onnurineus NA1) (protein)
chain: MNPFHELEPGPEVPEVVYALIEIPKGSRNKYELDKKTGLLKLDRVLYSPFFYPVDYGIIPQTWYDDGDPFDIMVIMREPVYPLTIVEARPIGIMKMEDSGDKDWKVLAVPVEDPYFNDWKDIDDVPKAFLDEIAHFFQRYKELQGKVTTVEGWGTAEEAKREILRAIEMYKEKFGKKE
notes: about 120 kDa native-PAGE, homo-hexamer; pET28a Nco I/Xho I, E. coli BL21(DE3), heat-purified 80 °C; EC 3.6.1.1, Family I
For the protein B1, the Km turned out to be 1116 µM, the kcat came out at 30000 s⁻¹ and the catalytic efficiency (kcat/Km) was found to be 2.68e+07 M⁻¹ s⁻¹.
